# Measurements: US20250340597A1
# Molecular target: CH848.d0949.10.17 DT (HIV-1)
# Experiment: not stated (FIG. 4)
substance,measurement,value
DH270 UCA Fab,Kd,60 nM
